The values below come from IntAct's records for PubMed 23877428.

Sequences and labels used below:
B1: Scaffold protein ILK (Homo sapiens), Q13418 (parent)
chain: MDDIFTQCREGNAVAVRLWLDNTENDLNQGDDHGFSPLHWACREGRSAVVEMLIMRGARINVMNRGDDTPLHLAASHGHRDIVQKLLQYKADINAVNEHGNVPLHYACFWGQDQVAEDLVANGALVSICNKYGEMPVDKAKAPLRELLRERAEKMGQNLNRIPYKDTFWKGTTRTRPRNGTLNKHSGIDFKQLNFLTKLNENHSGELWKGRWQGNDIVVKVLKVRDWSTRKSRDFNEECPRLRIFSHPNVLPVLGACQSPPAPHPTLITHWMPYGSLYNVLHEGTNFVVDQSQAVKFALDMARGMAFLHTLEPLIPRHALNSRSVMIDEDMTARISMADVKFSFQCPGRMYAPAWVAPEALQKKPEDTNRRSADMWSFAVLLWELVTREVPFADLSNMEIGMKVALEGLRPTIPPGISPHVCKLMKICMNEDPAKRPKFDMIVPILEKMQDK
partner: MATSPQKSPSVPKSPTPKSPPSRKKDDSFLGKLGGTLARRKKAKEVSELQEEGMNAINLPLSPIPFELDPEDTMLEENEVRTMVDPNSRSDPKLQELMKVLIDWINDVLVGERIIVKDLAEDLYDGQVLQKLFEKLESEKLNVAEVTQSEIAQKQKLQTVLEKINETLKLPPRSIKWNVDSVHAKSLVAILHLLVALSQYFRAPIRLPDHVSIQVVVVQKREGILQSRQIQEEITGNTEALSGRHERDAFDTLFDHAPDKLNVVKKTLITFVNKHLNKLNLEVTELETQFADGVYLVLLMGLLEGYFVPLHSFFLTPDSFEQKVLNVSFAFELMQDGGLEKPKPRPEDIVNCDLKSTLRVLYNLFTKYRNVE

In the experiment the parent is B1. The conditions noted are these: with parva_human PARVA.
For MDDIFTQCREGNAVAVRLWLDNTENDLNQGDDHGFSPLHWACREGRSAVVEMLIMRGARINVMNRGDDTPLHLAASHGHRDIVQKLLQYKADINAVNEHGNVPLHYACFWGQDQVAEDLVANGALVSICNKYGEMPVDKAKAPLRELLRERAEKMGQNLNRIPYKDTFWKGTTRTRPRNGTLNKHSGIDFKQLNFLTKLNENHSGELWKGRWQGNDIVVKVLKVRDWSTRKSRDFNEECPRLRIFSHPNVLPVLGACQSPPAPHPTLITHWMPYGSLYNVLHEGTNFVVDQSQAVKFALDMARGMAFLHTLEPLIPRHALNSRSVMIDEDMTARISMADVKFSFQCPGRMYAPAWVAPEALQKKPEDTNRRSADMWSFAVLLWELVTREVPFADLSNMEIGAAVALEGLRPTIPPGISPHVCKLMKICMNEDPAKRPKFDMIVPILEKMQDK [M402A;K403A], the “effect of a mutation on the interaction” value is “disrupting interaction”.
